Tests used:
[1] = biological target: polarity-marked microtubules (polymerised alpha-beta tubulin) (porcine) (UniProt P02554); test: single molecule fluorescence motility assay; purified Cin8-3GFP-6His variants on polarity-marked Taxol MTs; MB-90 (MB with 90 mM NaCl, IS = 0.232), 4 mM ATP; 90 s recordings
[2] = biological target: polarity-marked microtubules (polymerised alpha-beta tubulin) (porcine) (UniProt P02554); test: single molecule fluorescence motility assay; purified Cin8-3GFP-6His variants on polarity-marked Taxol MTs; MB-45 (MB with 45 mM NaCl, IS = 0.187), 4 mM ATP; 90 s recordings
[3] = biological target: polarity-marked microtubules (polymerised alpha-beta tubulin) (porcine) (UniProt P02554); test: single molecule fluorescence motility assay; purified Cin8-3GFP-6His variants on polarity-marked Taxol MTs; MB-135 (MB with 135 mM NaCl, IS = 0.277), 4 mM ATP; 90 s recordings
[4] = biological target: polarity-marked microtubules (polymerised alpha-beta tubulin) (porcine) (UniProt P02554); test: single molecule fluorescence motility assay; Cin8-3GFP variants in whole cell extract on polarity-marked Taxol MTs; MB-80 (MB with 80 mM NaCl, IS = 0.222), 4 mM ATP; 90 s recordings, 1 s frames
[5] = biological target: polarity-marked microtubules (polymerised alpha-beta tubulin) (porcine) (UniProt P02554); test: single molecule fluorescence motility assay; Cin8-3GFP variants in whole cell extract on polarity-marked Taxol MTs; MB-30 (MB with 30 mM NaCl, IS = 0.172), 4 mM ATP; 90 s recordings, 1 s frames

Row | % of moving molecules with interaction times longer than 90 s [1] [%] | % of moving molecules with interaction times longer than 90 s [2] [%] | % of moving molecules with interaction times longer than 90 s [3] [%] | % of moving molecules with interaction times longer than 90 s [4] [%] | % of moving molecules with interaction times longer than 90 s [5] [%] | Substance
1 | 53 | 71 | 14 | – | – | purified wild type Cin8-3GFP-6His (plasmid pOS2) (from UniProt P27895 1-1000) (natural protein)
2 | – | – | – | 21 | 75 | wild type Cin8-3GFP (whole cell extract, strain LGY 2055) (from UniProt P27895 1-1000) (natural protein)

— publication PMC4877575
